In paper PMC9352680, “A comprehensive thermodynamic model for RNA binding by the Saccharomyces cerevisiae Pumilio protein PUF4” one finds Kd data, which are given here for 47 molecules.

T1: PUF4 RNA-binding domain (Saccharomyces cerevisiae, UniProt P25339 537-888)
T1 sequence: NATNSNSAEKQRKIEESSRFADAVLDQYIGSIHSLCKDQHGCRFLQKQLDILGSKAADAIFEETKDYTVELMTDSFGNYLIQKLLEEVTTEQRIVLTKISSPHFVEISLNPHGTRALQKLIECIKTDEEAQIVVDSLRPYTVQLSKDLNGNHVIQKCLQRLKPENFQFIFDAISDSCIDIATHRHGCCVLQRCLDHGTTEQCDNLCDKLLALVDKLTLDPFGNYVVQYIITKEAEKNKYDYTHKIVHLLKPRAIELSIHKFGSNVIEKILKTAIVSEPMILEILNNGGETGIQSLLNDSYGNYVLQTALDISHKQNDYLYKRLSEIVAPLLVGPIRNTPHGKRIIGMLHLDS

B1: Ie_S4_P5E.1_K5.1_C5.1_H5.1_[+3CCCTT]_A5.1_F5.1_T5.1 (ssRNA)
RNA: UUUGACAACUGAUCGUUCUUUCUUGUCCCUUAUUAUUAUUCUUUCUCGAUCAGUUGUCUUU
B2: Ie_S4_P5E.1_K5.1_C5.1_H5.1_[+4TTCCT]_A5.1_F5.1_T5.1 (ssRNA)
RNA: B1 RNA with C27A, C28U, C29U, U30C, U31C, A32U
B3: Ie_S4_P5E.1_K5.1_C5.1_H5.1_A5.1_[+5CTCTC]_F5.1_T5.1 (ssRNA)
RNA: B1 RNA with C27A, C28U, U31C, A32U, U33C
B4: Ie_S4_P5E.1_K5.1_C5.1_H5.1_[+4CCCTT]_A5.1_F5.1_T5.1 (ssRNA)
RNA: B1 RNA with C27A, U30C, A32U
B5: Ie_S4_P5E.1_K5.1_C5.1_H5.1_A5.1_[+5CCCTT]_F5.1_T5.1 (ssRNA)
RNA: B1 RNA with C27A, C28U, U30C, U31C, A32U
B6: Ie_S4_P5E.1_K5.1_C5.1_H5.1_A5.1_[+6CTCTC]_F5.1_T5.1 (ssRNA)
RNA: B1 RNA with C27A, C28U, C29U, U30C, A32C, U34C
B7: Ie_S4_P5E.1_K5.1_C5.1_H5.1_A5.1_[+5TCTCT]_F5.1_T5.1 (ssRNA)
RNA: B1 RNA with C27A, C28U, C29U, U30C, A32C
B8: Ie_S4_P5E.1_K5.1_C5.1_H5.1_A5.1_[+7CTCTC]_F5.1_T5.1 (ssRNA)
RNA: UUUGACAACUGAUCGUUCUUUCUUGUAUUACUCUCUUAUUCUUUCUCGAUCAGUUGUCUUU
B9: Ie_S4_P5E.1_K5.1_C5.1_H5.1_A5.1_F5.1_[+8CTCTC]_T5.1 (ssRNA)
RNA: B8 RNA with C31U, U32C, C33U, U34C, C35U, U36C
B10: Ie_S4_P5E.1_K5.1_C5.1_H5.1_A5.1_F5.1_[+9CTCTC]_T5.1 (ssRNA)
RNA: B8 RNA with C31U, U37C
B11: Ib_S2_P3E.1_K3.1_C3.1_H3.1_[A4G]_A3.1_[A6T]_F3.1_T3.1 (ssRNA)
RNA: UUUGAUUAAUAUGAUAUCGUUCUUUCUUGUGUUUAUUCUUUCUCGAUAUCAUAUUAAUCUUU
B12: Ib_S2_P3E.1_K3.1_C3.1_H3.1_[A4C]_A3.1_[A6G]_F3.1_T3.1 (ssRNA)
RNA: B11 RNA with G31C, U33G
B13: Ib_S2_P3E.1_K3.1_C3.1_H3.1_[A4T]_A3.1_[A6C]_F3.1_T3.1 (ssRNA)
RNA: B11 RNA with G31U, U33C
B14: Ib_S2_P3E.1_K3.1_C3.1_H3.1_[A4C]_A3.1_[A6T]_F3.1_T3.1 (ssRNA)
RNA: B11 RNA with G31C
B15: Ie_S4_P5E.1_K5.1_C5.1_H5.1_[+4CC]_A5.1_F5.1_T5.1 (ssRNA)
RNA: UUUGACAACUGAUCGUUCUUUCUUGUACCUUAUUAUUCUUUCUCGAUCAGUUGUCUUU
B16: Ie_S4_P5E.1_K5.1_C5.1_H5.1_[+4CT]_A5.1_F5.1_T5.1 (ssRNA)
RNA: B15 RNA with C29U
B17: Ie_S4_P5E.1_K5.1_C5.1_H5.1_A5.1_F5.1_[+8CT]_T5.1 (ssRNA)
RNA: B15 RNA with C28U, C29U, U30A, A32C
B18: Ie_S4_P5E.1_K5.1_C5.1_H5.1_A5.1_F5.1_[+8CC]_T5.1 (ssRNA)
RNA: B15 RNA with C28U, C29U, U30A, A32C, U33C
B19: Ie_S4_P5E.1_K5.1_C5.1_H5.1_[+4CCC]_A5.1_F5.1_T5.1 (ssRNA)
RNA: UUUGACAACUGAUCGUUCUUUCUUGUACCCUUAUUAUUCUUUCUCGAUCAGUUGUCUUU
B20: Ie_S4_P5E.1_K5.1_C5.1_H5.1_A5.1_[+7CCC]_F5.1_T5.1 (ssRNA)
RNA: B19 RNA with C28U, C29U, C30A, U31C, U32C, A33C
B21: Ie_S4_P5E.1_K5.1_C5.1_H5.1_A5.1_[+7TCT]_F5.1_T5.1 (ssRNA)
RNA: B19 RNA with C28U, C29U, C30A, U32C, A33U
B22: Ie_S4_P5E.1_K5.1_C5.1_H5.1_A5.1_[+5TTT]_F5.1_T5.1 (ssRNA)
RNA: B19 RNA with C28U, C29U, C30U
B23: Ie_S4_P5E.1_K5.1_C5.1_H5.1_[+4TCC]_A5.1_F5.1_T5.1 (ssRNA)
RNA: B19 RNA with C28U
B24: Ie_S4_P5E.1_K5.1_C5.1_H5.1_[+4CTC]_A5.1_F5.1_T5.1 (ssRNA)
RNA: B19 RNA with C29U
B25: Ie_S4_P5E.1_K5.1_C5.1_H5.1_A5.1_[+7TTT]_F5.1_T5.1 (ssRNA)
RNA: B19 RNA with C28U, C29U, C30A, A33U
B26: Ie_S4_P5E.1_K5.1_C5.1_H5.1_A5.1_[+6CCC]_F5.1_T5.1 (ssRNA)
RNA: B19 RNA with C28U, C29U, U31C, U32C
B27: Ie_S4_P5E.1_K5.1_C5.1_H5.1_A5.1_F5.1_[+9CCC]_T5.1 (ssRNA)
RNA: B19 RNA with C28U, C29U, C30A, A33C, U34C, U35C
B28: Ie_S4_P5E.1_K5.1_C5.1_H5.1_A5.1_[+6TTC]_F5.1_T5.1 (ssRNA)
RNA: B19 RNA with C28U, C29U, C30U, U32C
B29: Ie_S4_P5E.1_K5.1_C5.1_H5.1_A5.1_[+7CTT]_F5.1_T5.1 (ssRNA)
RNA: B19 RNA with C28U, C29U, C30A, U31C, A33U
B30: Ie_S4_P5E.1_K5.1_C5.1_H5.1_A5.1_F5.1_[+9CTC]_T5.1 (ssRNA)
RNA: B19 RNA with C28U, C29U, C30A, A33C, U35C
B31: Ie_S4_P5E.1_K5.1_C5.1_H5.1_[+4CTT]_A5.1_F5.1_T5.1 (ssRNA)
RNA: B19 RNA with C29U, C30U
B32: Ie_S4_P5E.1_K5.1_C5.1_H5.1_A5.1_F5.1_[+8TTC]_T5.1 (ssRNA)
RNA: B19 RNA with C28U, C29U, C30A, A33U, U34C
B33: Ie_S4_P5E.1_K5.1_C5.1_H5.1_A5.1_F5.1_[+9CCT]_T5.1 (ssRNA)
RNA: B19 RNA with C28U, C29U, C30A, A33C, U34C
B34: Ie_S4_P5E.1_K5.1_C5.1_H5.1_A5.1_[+7CCT]_F5.1_T5.1 (ssRNA)
RNA: B19 RNA with C28U, C29U, C30A, U31C, U32C, A33U
B35: Ie_S4_P5E.1_K5.1_C5.1_H5.1_A5.1_[+6C]_F5.1_T5.1 (ssRNA)
RNA: UUUGACAACUGAUCGUUCUUUCUUGUAUUCAUUAUUCUUUCUCGAUCAGUUGUCUUU
B36: Ie_S4_P5E.1_K5.1_C5.1_H5.1_A5.1_F5.1_[+8C]_T5.1 (ssRNA)
RNA: B35 RNA with C30A, A31U, U32C
B37: Ie_S4_P5E.1_K5.1_C5.1_H5.1_[+3TTCC]_A5.1_F5.1_T5.1 (ssRNA)
RNA: UUUGACAACUGAUCGUUCUUUCUUGUUUCCAUUAUUAUUCUUUCUCGAUCAGUUGUCUUU
B38: Ie_S4_P5E.1_K5.1_C5.1_H5.1_A5.1_F5.1_[+8TCTC]_T5.1 (ssRNA)
RNA: B37 RNA with U27A, C29U, C30A, A31U, U33C, A34U, U35C
B39: Ie_S4_P5E.1_K5.1_C5.1_H5.1_A5.1_[+7CTCT]_F5.1_T5.1 (ssRNA)
RNA: B37 RNA with U27A, C29U, C30A, A31C, U33C, A34U
B40: Ie_S4_P5E.1_K5.1_C5.1_H5.1_A5.1_F5.1_[+8CTCT]_T5.1 (ssRNA)
RNA: B37 RNA with U27A, C29U, C30A, A31U, U32C, A34C
B41: Ie_S4_P5E.1_K5.1_C5.1_H5.1_[+4CCCT]_A5.1_F5.1_T5.1 (ssRNA)
RNA: B37 RNA with U27A, U28C, A31U
B42: Ie_S4_P5E.1_K5.1_C5.1_H5.1_A5.1_F5.1_[+8TTCC]_T5.1 (ssRNA)
RNA: B37 RNA with U27A, C29U, C30A, A31U, A34C, U35C
B43: Ie_S4_P5E.1_K5.1_C5.1_H5.1_A5.1_[+5CCCT]_F5.1_T5.1 (ssRNA)
RNA: B37 RNA with U27A, A31C
B44: Ie_S4_P5E.1_K5.1_C5.1_H5.1_A5.1_F5.1_[+9TCTC]_T5.1 (ssRNA)
RNA: B37 RNA with U27A, C29U, C30A, A31U, A34C, U36C
B45: Ie_S4_P5E.1_K5.1_C5.1_H5.1_[+4TTCC]_A5.1_F5.1_T5.1 (ssRNA)
RNA: B37 RNA with U27A, C29U, A31C
B46: Ie_S4_P5E.1_K5.1_C5.1_H5.1_A5.1_[+6TTCC]_F5.1_T5.1 (ssRNA)
RNA: B37 RNA with U27A, C29U, C30U, A31U, U32C, U33C
B47: Ie_S4_P5E.1_K5.1_C5.1_H5.1_[+4CCTC]_A5.1_F5.1_T5.1 (ssRNA)
RNA: B37 RNA with U27A, U28C, C30U, A31C

Changes are numbered by the printed parent chain. In names and notes the source's numbering stands.

By Kd is commonly meant the free concentration of one partner at which half of the binding sites on the other are occupied at equilibrium, for simple one-to-one binding.

The target in the data set is T1, PUF4 RNA-binding domain. Description: Mg; RNA-MaP; 20 mM Na-HEPES pH 7.4, 30 mM KOAc, 0.75 mM MgCl2, 0.1% Tween-20, 5% glycerol, 0.1 mg/mL BSA, 2 mM DTT; 25 C; 0.0125-409.6 nM protein. To be noted: tags: N-His6-TEV cleaved; C-SNAP kept, Cy3B-labelled; label: tethered on chip by stalled RNA polymerase.
Molecule B1 returned a Kd of 54.8 nM. This counts as double-digit nanomolar.
The result for B2 reads 16.5 nM.
B3 displayed a Kd of 13.3 nM.
In turn, B4 gave a Kd of 9.87 nM. This Kd and that of the molecule before are within 1.5-fold of each other.
The result for B5 reads 20.8 nM.
Molecule B6 came in with a Kd of 43.6 nM.
For B7 the value was 14.2 nM; for B8, 28.7 nM.
For B9 the value was 27.5 nM; for B10, 25 nM.
The result for B11 reads 37 nM; that for B12, 40.8 nM.
As for B13, the Kd came out at 472 nM.
For B14 the value was 1200 nM.
The result for B15 reads 1.43 nM; that for B16, 0.642 nM.
For B17 the value was 16.1 nM; for B18, 21 nM; for B19, 3.18 nM.
Molecule B20 yielded a Kd of 85 nM.
In turn, B21 returned a Kd of 24.9 nM.
As to B22, binding was characterised by a dissociation constant (Kd) of 2.85 nM.
The result for B23 reads 6.26 nM; that for B24, 2.91 nM.
The result for B25 reads 12.5 nM; that for B26, 60.8 nM; that for B27, 10.8 nM.
The result for B28 reads 32 nM; that for B29, 26.8 nM.
B30 displayed a Kd of 29.8 nM.
The result for B31 reads 1.26 nM; that for B32, 12.3 nM; that for B33, 17.6 nM.
For B34 the value was 66.5 nM; for B35, 13.4 nM; for B36, 17.1 nM.
For B37 the value was 44.8 nM; for B38, 20.1 nM.
With B39, the Kd is 65.1 nM.
The result for B40 reads 27.8 nM.
For B41 the value was 6.05 nM; for B42, 21.1 nM.
The result for B43 reads 16 nM; that for B44, 18 nM; that for B45, 9.55 nM.
Consider B46, for which the dissociation constant Kd is 19.2 nM.
For B47 the value was 7.54 nM.
